From patent publication US20150111820A1, “NOVEL USE OF INSULIN DERIVATIVES” (Novo Nordisk A/S, priority 2012, published 2015)

Design: species or system humans
Details: in vivo
Description: The simulation was performed using the software WinNonlin Professional 5.3 (Pharsight Inc., Mountain View, Calif., USA).

| Substance | elimination half-life | elimination rate constant | terminal half-life compared with Compound 6 |
| --- | --- | --- | --- |
| A14E, B25H, B29K(N^ε-octadecandioyl-γGlu-OEG-OEG), desB30 human insulin [Compound 6] | 52 h | 0.013 h⁻¹ | – |
| A14E, B25H, desB27, B29K(N^ε-(octadecandioyl-γGlu), desB30 human insulin [Compound 4] | – | – | almost the same terminal half-life |
